Experimental findings from PMC12447578, “Syndecan-4 interacts directly with β-parvin and regulates the ILK-PINCH-β-parvin complex, the β-parvin-β-PIX-Rac1 axis, and cardiomyocyte geometry in a sex-dependent manner” (Frontiers in Cell and Developmental Biology, 2025) are described below.

By Kd is commonly meant the equilibrium constant for the complex coming apart. Low readings indicate higher affinity, high ones lower affinity. As a reminder, the koff is a measure of how fast the partners let go of each other. In general, kon refers to a measure of how fast the partners come together.

In assay [1] the target is Biotin-ahx-SDC4cyt (human, rat and mouse (identical)). Put plainly: SPR; Biacore X100; biotin-ahx-SDC4cyt immobilised on SA chip at 100-200 RU; parvin as analyte 26.5-277.7 nM in Hepes pH 7.4, 150 mM NaCl, 3 mM EDTA, 0.005% Surfactant P20; 30 µL/min, 180 s association, 600 s dissociation; 1:1 Langmuir model.
For assay [2], the system named is FL β-parvin 20′mer overlapping peptides. Description: Peptide overlay: 20-mer β-parvin peptides overlaid with recombinant ILK (S343D). In kind it is binding, rat. To be noted: peptide array, O/N, 4°C, ILK antibodies, n = 4 membranes. The text has this:
Full-length (FL) recombinant human C-Myc/DDK-β-parvin was obtained from OriGene (TP308490, Rockville, MD, United States). Recombinant rat 8xHIS-β-parvin (85% purity), rat 8xHIS-α-parvin (85% purity), and mouse 8xHIS-ILK (S343D) (75% purity) were custom-made by GenScript.
The cytoplasmic tail of syndecan-4 (mouse) or FL β-parvin (rat) protein was synthesized as 20′mer overlapping peptides with 3 amino acids offset onto a cellulose membrane by a Multipep automated peptide synthesizer (CEM Corporation, Matthews, NC, United States) ([Frank and Overwin, 1996]). After membrane blocking, antibodies, or a solution with recombinant protein or biotin-ahx-SDC4 were added and incubated O/N at 4°C. Membranes were developed as described for immunoblotting.

Chain of Biotin-ahx-SDC4cyt (human, rat and mouse (identical)) (P31431 171-198): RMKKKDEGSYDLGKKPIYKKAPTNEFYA

Take “Recombinant rat 8xHIS-β-parvin (natural protein)”: in assay [1], the equilibrium dissociation constant (Kd) came to 11.1 nM, the off-rate (koff) turned out to be 8.6e-05 s⁻¹ and the on-rate constant (kon) came to 10000 M⁻¹ s⁻¹.

B1: ILK (S343D): Recombinant mouse 8xHIS-ILK (S343D), custom-made by GenScript (protein)
chain: MDDIFTQCREGNAVAVRLWLDNTENDLNQGDDHGFSPLHWACREGRSAVVEMLIMRGARINVMNRGDDTPLHLAASHGHRDIVQKLLQYKADINAVNEHGNVPLHYACFWGQDQVAEDLVANGALVSICNKYGEMPVDKAKAPLRELLRERAEKMGQNLNRIPYKDTFWKGTTRTRPRNGTLNKHSGIDFKQLNFLAKLNENHSGELWKGRWQGNDIVVKVLKVRDWSTRKSRDFNEECPRLRIFSHPNVLPVLGACQAPPAPHPTLITHWMPYGSLYNVLHEGTNFVVDQSQAVKFALDMARGMAFLHTLEPLIPRHALNSRSVMIDEDMTARISMADVKFDFQCPGRMYAPAWVAPEALQKKPEDTNRRSADMWSFAVLLWELVTREVPFADLSNMEIGMKVALEGLRPTIPPGISPHVCKLMKICMNEDPAKRPKFDMIVPILEKMQDK
modifications: left off: 8xHIS, end not stated, state not stated
notes: Recombinant mouse 8xHIS-ILK (S343D), custom-made by GenScript
Consider B1, for which, in assay [2], the “ILK binding site in β-parvin (CH2 domain)” value is “bound a few amino acids upstream of the syndecan-4 core binding site”.
